These results are taken from article PMC11045787, “Disordered clock protein interactions and charge blocks turn an hourglass into a persistent circadian oscillator” (Nature Communications, 2024).

Where no end group is shown, it is not given here.

The experiment addresses T1, FRQ-interacting RNA Helicase (FRH), a.a. 100-1106, with 6x His-tag (N. crassa, UniProt Q1K502 100-1106).
T1 construct: The preparation was only about 30% FRH; the other proteins were left in on purpose; also called FRHΔ100; E. coli expressed FRH; source: E. coli BL21 (DE3), Ni-NTA eluate, de-salted and buffer-exchanged to PBS (~30% FRH by Coomassie gel); not shown: His6, N-terminal, kept
T1 sequence (looked up): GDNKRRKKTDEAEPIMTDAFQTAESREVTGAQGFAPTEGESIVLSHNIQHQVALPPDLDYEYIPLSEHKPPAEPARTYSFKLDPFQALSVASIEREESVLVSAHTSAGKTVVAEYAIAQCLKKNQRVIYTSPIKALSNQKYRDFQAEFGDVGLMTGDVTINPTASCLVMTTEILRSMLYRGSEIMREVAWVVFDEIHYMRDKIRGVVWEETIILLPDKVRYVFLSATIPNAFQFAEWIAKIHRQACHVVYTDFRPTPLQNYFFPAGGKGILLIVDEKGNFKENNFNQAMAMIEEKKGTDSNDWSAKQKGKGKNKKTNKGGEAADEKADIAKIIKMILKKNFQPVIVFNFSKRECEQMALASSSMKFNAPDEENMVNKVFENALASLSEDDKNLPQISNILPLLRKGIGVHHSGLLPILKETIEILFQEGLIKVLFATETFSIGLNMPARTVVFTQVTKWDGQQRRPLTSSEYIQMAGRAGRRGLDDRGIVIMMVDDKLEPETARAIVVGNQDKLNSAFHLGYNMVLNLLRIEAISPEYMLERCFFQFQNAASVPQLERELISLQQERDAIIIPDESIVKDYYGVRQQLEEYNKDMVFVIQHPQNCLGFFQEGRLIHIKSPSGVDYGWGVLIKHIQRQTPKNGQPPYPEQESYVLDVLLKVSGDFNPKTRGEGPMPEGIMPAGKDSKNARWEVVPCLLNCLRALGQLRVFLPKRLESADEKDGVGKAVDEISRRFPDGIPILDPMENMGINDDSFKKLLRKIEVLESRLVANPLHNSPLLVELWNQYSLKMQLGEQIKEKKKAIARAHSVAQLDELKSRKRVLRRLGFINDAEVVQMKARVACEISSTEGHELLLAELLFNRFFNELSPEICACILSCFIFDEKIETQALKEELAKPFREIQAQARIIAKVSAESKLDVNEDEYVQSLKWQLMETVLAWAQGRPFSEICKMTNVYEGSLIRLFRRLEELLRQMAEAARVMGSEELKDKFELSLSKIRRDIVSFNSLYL
The experiment is described as follows: peptide or protein array; LOCATE Library II: rationally designed FRQ peptides (parents, scrambles, truncations, substitutions) spotted on slides; ~100 nM FRH in solution, room temperature, PBS pH 7.0; read with anti-His and chemiluminescence; FRH preparation ~30% pure. The following applies: both partners purified.

B1: FRQ peptide MTDKEKKKLVVRRLE (near the FCD-1 region) (peptide)
peptide: Ac-MTDKEKKKLVVRRLE
notes: Made from C- to N-terminus on cellulose; printed as a peptide-cellulose stock; source: synthetic peptide (Fmoc, on cellulose disks, spotted on nitrocellulose-coated slides)
In the case of B1, the binding result is recorded as “binds”.
